# Where two headings read alike, the source gives them in different places.
# B1: mHMGB1: engineered C45S variant of full length rHMGB1 that mimics the reduced form of HMGB1 (protein, UniProt P09429 1-215, looked up, variant C45S)
# chain: MGKGDPKKPRGKMSSYAFFVQTCREEHKKKHPDASVNFSEFSKKSSERWKTMSAKEKGKFEDMAKADKARYEREMKTYIPPKGETKKKFKDPNAPKRPPSAFFLFCSEYRPKIKGEHPGLSIGDVAKKLGEMWNNTAADDKQPYEKKAAKLKEKYEKDIAAYRAKGKPDAAKKGVVKAEKSKKKKEEEEDEEDEEDEEEEEDEEDEDEEEDDDDE
# modifications: full-length
# notes: engineered C45S variant of full length rHMGB1 that mimics the reduced form of HMGB1
# B2: B-linker Box: HMGB1 B Box with N- and C-terminal linker (80-179; 80 to 176 in b258), 97 amino acid (protein, UniProt P09429 80-179, looked up, fragment)
# chain: PPKGETKKKFKDPNAPKRPPSAFFLFCSEYRPKIKGEHPGLSIGDVAKKLGEMWNNTAADDKQPYEKKAAKLKEKYEKDIAAYRAKGKPDAAKKGVVKAE
# What was measured:
# [1] = system: NTHI biofilms; format: in vivo, chinchilla; conditions: for reduction in CFU of NTHI: 0.2 nmol to middle ear at days 4 and 5 post-challenge, day 6, vs diluent
# Procedure: FIGS. 8A-8F: rHMGB1 and mHMGB1 promote biofilm resolution in an experimental otitis media model. Diluent, 0.2 nmol rHMGB1, or 0.2 nmol mHMGB1 were delivered directly to middle ears of chinchillas at 4 and 5 days post-challenge with NTHI. Animals were sacrificed 24 h later, middle ears were imaged (FIG. 8C, representative images) and, based on the criteria described in (FIG. 8A, biofilm) and (FIG. 8B, inflammation), blindly scored for presence of biofilm (FIG. 8D) and inflammation (FIG. 8F). CFU of NTH1 present in the mucosal biomass were quantified (FIG. 8E). Means and SEM are plotted. **P<0.01, ****P<0.0001.
# rHMGB1 and mHMGB1 disrupt biofilms in two distinct animal models but the inflammatory response is strongly attenuated with Cys to Ser mutations: Applicant tested both rHMGB1 and mHMGB1 for their ability to treat middle ear infection and the corresponding inflammatory response using a well-established chinchilla model of experimental OM due to NTHI49,67,68 wherein adhered mucosal biofilm formation plays a key role in pathogenesis (FIG. 8A). The middle ear of mixed sex, outbred adult chinchillas were inoculated with 1000 CFU NTHI by transbullar injection. At days 4 and 5 post-challenge, at which time there is abundant biofilm present in the middle ear space, […] of rHMGB1, mHMGB1, or diluent was delivered directly to the middle ear (2 total treatments). On day 6, animals were sacrificed and middle ears were imaged and blindly scored for biofilm that remained (FIG. 8A) and mucosal inflammation (FIG. 8B). […] In contrast, MEFs from mHMGB1-treated animals had increased anti-inflammatory cytokines [IL-4 (2-fold), IL-10 (5-fold)] […] Next, Applicant determined whether rHMGB1 or mHMGB1 could prevent or […] biofilm development. For prevention, adult C57BL/6 mice were challenged with 10^7 CFU of Bc intratracheally (i.t.), and 0.2 nmol of rHMGB1 or mHMGB1 was added simultaneously. After 18 h, mice were euthanized, and bronchoalveolar lavage (BAL) and lungs were collected. Bc formed aggregates that were readily visible in lung sections probed with Bc antibody (FIG. 7A). Tissue was homogenized and CFUs were enumerated. […] This same animal model was then used to investigate lung damage 72 h post-challenge with Bc and administration of rHMGB1 or mHMGB1. Lungs were collected and tissue was fixed, embedded in paraffin, sectioned, and stained with Haematoxylin and Eosin (H&E). […] Next, Applicant assessed the ability of rHMGB1 and mHMGB1 to treat established Bc infection. Mice were challenged as above and 0.2 nmol rHMGB1 or mHMGB1 was administered 24 h later. 48 h after treatment, mice were euthanized and BAL and lungs were collected and processed as above. […]
# [2] = system: biofilms present in CF sputum; experiment: disruption of CF sputum (optical density of surrounding media); conditions: CF sputum suspensions in PBS, 37° C.; compared with Pulmozyme and anti-DNABII
# Procedure: FIGS. 10A-10B: HMGB1 In specimens from biofilm-associated diseases. (FIG. 10A) Sections of OCT-embedded mucosal biomass from an NTHI-infected chinchilla middle ear were co-labeled for HMGB1 and DNABII protein for immunofluorescence microscopy. Double stranded eDNA was labeled with DAPI (white). (FIG. 10B) CF sputum incubated with antibiofilm treatments (PBS, 1:10 rabbit a-1HFEc, serum, 100 U/ml Pulmozyme® (DNase), 1 mM rHMGB1) at 37° C. for […] and optical density of surrounding media was measured at 0 hour and 2 hour.
# HMGB1 disrupts biofilms present in clinical specimens: Biofilms at chronic disease sites (e.g. CF lung), consist of multiple species and by nature are difficult to eradicate. It has been shown that anti-DNABII antibodies to disrupt biofilms present in CF sputum.
# [3] = system: B. cenocepacia; format: in vivo, C57BL/6 mice; conditions: 0.2 nmol administered 24 h after challenge, collected 48 h after treatment
# Procedure: FIGS. 7A-7G: HMGB1 promotes clearance of S. cenocepaca from mice without inducing sepsis. C57BL/6 mice were challenged with 10^7 CFU intratracheally, and either simultaneously (prevention) or 24 h later (treatment) received 0.2 nmol of HMGB1 valiant. (FIG. 7A) Aggregates of B. cenocepacia were visible by fluorescence microscopy in lung sections probed with an α-B. cenocepacia antibody. For prevention, (FIG. 7B) bronchoalveolar lavage (BAL) collected 18 h post-inoculation (hpi) was analyzed for CFU. (FIG. 7C) Neutrophils in BAL were quantified by differential cell counting. (FIG. 7D) Lung tissue collected 72hpi was fixed, embedded, sectioned, and stained with hematoxylin & eosin (10× magnification). For treatment, 72hpi (FIG. 7E) CFUs were quantified in BAL. (FIG. 7F) Neutrophil recruitment was analyzed 24 h after intraperitoneal (i.p.) administration of HMGB1 valiants by fluorescence-activated cell sorting of peritoneal lavage stained with α-CD45, α-CD11b, and αLy-6G. (FIG. 7G) Serum TNF-α. was measured by ELISA in mice injected i.p. with 0.2 nmol HMGB1 valiants, 5 mg/kg LPS, or both. LoD: limit of detection. Bars represent SD. *P<0.05.
# rHMGB1 and mHMGB1 disrupt biofilms in two distinct animal models but the inflammatory response is strongly attenuated with Cys to Ser mutations: Applicant tested both rHMGB1 and mHMGB1 for their ability to treat middle ear infection and the corresponding inflammatory response using a well-established chinchilla model of experimental OM due to NTHI49,67,68 wherein adhered mucosal biofilm formation plays a key role in pathogenesis (FIG. 8A). […] On day 6, animals were sacrificed and middle ears were imaged and blindly scored for biofilm that remained (FIG. 8A) and mucosal inflammation (FIG. 8B). […] Next, Applicant determined whether rHMGB1 or mHMGB1 could prevent or aggregate biofilm development. […] Bc formed aggregates that were readily visible in lung sections probed with Bc antibody (FIG. 7A). […] Next, Applicant assessed the ability of rHMGB1 and mHMGB1 to treat established Bc infection. […]
Molecule,reduction in CFU of NTHI [1],increased IL-1β in middle ear fluids ([1]; in vivo),increased IL-17A in middle ear fluids ([1]; in vivo),disruption of CF sputum [2],Bc CFU in lungs / BAL [3],Bc CFU in lungs / BAL ([3]; listed as HMGB1)
rHMGB1: tagless human recombinant full length HMGB1 (1-215) expressed in E. coli,~1000 fold,3 fold,2 fold,can disrupt biofilms present in CF sputum,significantly fewer Bc in their lungs,significantly decreased
B1,~1000 fold,–,–,–,significantly fewer Bc in their lungs,–
B2,–,–,–,disrupted sputum effectively,–,–

# Source: US12365710B2, “HMGB1 protein derivatives for the removal of biofilms” (RESEARCH INSTITUTE AT NATIONWIDE CHILDREN'S HOSPITAL, priority 2018, dated 2025)
